Results as given in patent publication US20220332804A1 (CSL INNOVATION, published 2022).

What was measured:
Assay in all cases: SPR, KD relative to WT C2;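 also: biacore SPR at 37 °C, anti-C2 mAbs captured on anti-human IgG chips with alanine or serine point mutants of C2 as analyte, KD from 1:1 fit compared with wild-type C2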
human C2 K329A = molecular target: T1, human C2 K329A (human, UniProt P06681 21-752)
T1 sequence: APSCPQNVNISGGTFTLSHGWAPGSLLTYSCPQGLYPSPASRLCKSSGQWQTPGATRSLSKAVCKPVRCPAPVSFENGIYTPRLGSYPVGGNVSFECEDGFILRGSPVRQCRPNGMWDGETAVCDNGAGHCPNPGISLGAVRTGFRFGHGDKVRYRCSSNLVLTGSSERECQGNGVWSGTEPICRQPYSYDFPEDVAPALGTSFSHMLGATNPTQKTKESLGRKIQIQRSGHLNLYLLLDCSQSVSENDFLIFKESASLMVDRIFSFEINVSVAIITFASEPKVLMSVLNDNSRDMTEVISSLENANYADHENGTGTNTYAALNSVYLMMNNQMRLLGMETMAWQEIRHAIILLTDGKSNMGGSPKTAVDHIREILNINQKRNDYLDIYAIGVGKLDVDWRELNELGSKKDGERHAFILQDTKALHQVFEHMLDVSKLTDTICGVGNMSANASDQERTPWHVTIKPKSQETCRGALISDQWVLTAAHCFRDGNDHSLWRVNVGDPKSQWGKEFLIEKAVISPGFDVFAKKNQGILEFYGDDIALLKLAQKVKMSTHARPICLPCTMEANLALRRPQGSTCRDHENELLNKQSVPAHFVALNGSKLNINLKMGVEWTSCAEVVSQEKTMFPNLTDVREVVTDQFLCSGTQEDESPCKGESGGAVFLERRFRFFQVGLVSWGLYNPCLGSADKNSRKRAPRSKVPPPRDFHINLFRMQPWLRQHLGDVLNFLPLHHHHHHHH

human C2 V465A = molecular target: T2, human C2 V465A (human, UniProt P06681 21-752)
T2 sequence: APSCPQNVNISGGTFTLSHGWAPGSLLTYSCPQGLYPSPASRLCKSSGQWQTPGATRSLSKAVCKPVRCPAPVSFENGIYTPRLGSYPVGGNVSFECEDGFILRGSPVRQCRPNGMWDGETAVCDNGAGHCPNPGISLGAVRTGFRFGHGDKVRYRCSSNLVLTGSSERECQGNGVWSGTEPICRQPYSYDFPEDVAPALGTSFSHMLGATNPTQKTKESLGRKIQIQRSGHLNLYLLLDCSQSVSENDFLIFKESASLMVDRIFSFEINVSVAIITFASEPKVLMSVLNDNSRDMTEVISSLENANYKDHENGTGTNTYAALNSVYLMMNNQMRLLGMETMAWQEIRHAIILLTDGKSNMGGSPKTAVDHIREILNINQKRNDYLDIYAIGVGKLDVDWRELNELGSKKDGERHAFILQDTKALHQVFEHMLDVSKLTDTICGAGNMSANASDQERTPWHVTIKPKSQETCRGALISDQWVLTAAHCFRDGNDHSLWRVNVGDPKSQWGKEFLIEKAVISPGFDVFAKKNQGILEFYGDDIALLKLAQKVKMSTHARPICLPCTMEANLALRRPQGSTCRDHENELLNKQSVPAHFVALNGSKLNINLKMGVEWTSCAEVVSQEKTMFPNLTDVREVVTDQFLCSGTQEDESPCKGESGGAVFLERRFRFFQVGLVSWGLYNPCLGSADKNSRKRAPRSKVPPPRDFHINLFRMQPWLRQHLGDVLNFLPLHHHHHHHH

human C2 R493A = molecular target: T3, human C2 R493A (human, UniProt P06681 21-752)
T3 sequence: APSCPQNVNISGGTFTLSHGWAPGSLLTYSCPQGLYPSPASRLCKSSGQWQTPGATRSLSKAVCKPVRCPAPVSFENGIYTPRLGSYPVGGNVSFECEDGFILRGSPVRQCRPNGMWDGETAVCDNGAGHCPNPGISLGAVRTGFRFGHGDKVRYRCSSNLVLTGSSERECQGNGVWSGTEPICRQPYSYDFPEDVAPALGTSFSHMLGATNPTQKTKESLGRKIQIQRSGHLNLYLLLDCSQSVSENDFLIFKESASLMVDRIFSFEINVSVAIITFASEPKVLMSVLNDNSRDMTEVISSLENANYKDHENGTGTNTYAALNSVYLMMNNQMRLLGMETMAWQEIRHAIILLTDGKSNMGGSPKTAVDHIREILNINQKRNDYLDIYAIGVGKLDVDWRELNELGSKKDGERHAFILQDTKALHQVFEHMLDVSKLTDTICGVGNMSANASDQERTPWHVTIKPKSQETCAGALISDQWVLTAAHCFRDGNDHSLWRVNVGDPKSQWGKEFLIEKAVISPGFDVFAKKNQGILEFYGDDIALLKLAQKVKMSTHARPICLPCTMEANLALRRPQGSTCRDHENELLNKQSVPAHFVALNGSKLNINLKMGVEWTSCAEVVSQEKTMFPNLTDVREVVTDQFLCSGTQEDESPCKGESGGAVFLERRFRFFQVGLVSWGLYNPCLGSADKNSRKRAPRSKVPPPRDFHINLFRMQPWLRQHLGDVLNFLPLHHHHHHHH

human C2 A470S = molecular target: T4, human C2 A470S (human, UniProt P06681 21-752)
T4 sequence: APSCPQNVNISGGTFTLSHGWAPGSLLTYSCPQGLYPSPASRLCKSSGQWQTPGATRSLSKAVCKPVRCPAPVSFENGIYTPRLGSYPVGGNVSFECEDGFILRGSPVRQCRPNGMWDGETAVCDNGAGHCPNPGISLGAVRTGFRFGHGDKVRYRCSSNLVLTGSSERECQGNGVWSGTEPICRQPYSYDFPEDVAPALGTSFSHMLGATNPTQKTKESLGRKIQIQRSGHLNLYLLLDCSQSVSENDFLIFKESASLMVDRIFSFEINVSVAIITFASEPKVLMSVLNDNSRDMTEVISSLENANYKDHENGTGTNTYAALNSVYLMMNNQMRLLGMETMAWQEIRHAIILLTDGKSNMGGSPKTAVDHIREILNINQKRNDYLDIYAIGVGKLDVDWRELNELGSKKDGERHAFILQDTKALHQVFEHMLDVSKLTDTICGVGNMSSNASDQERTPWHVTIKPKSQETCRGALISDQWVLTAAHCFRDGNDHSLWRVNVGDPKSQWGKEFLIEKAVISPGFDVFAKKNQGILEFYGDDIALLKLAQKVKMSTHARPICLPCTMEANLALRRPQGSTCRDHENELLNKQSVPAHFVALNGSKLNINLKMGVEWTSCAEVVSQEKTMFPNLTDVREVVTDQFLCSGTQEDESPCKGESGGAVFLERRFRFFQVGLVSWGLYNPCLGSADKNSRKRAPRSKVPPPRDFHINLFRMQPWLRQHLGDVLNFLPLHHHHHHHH

B1: RF16-242 (antibody, human IgG4 S228P, lambda, V domains shown)
VH: EVQLLQSGAEVKKPGESLKISCKGSGYSFTSYWIGWVRQMPGKGLEWMGIIYPGDSDTRYSPSFQGQVTISADKSISTAYLQWSSLKASDTAMYYCARRGHYGDYFDYWGQGTLVTVSS
VL: SYELTQPPSVSVSPGQTARITCSGDALPKKYAYWYHQKSGQAPVLVIYEDRRRPSEIPERFSGSSSGTMATLTITGAQVEDEGVYFCYSRDRAGNQRVFGGGTQLTVLG
notes: pH-dependent anti-C2 antibody from a phage display library
Binder B1 has a Fold diff (human C2 K329A) of 2 fold, a Fold diff (human C2 V465A) of 2 fold and a Fold diff (human C2 R493A) of 1 fold. It also gave a Fold diff (human C2 A470S) of 1 fold.
